The target in experiment [1] is T1, B7H3 on A375 cells (UniProt Q5ZPR3 29-534, limits assumed).
T1 construct: whole, on cells; also called BH73
T1 sequence (looked up): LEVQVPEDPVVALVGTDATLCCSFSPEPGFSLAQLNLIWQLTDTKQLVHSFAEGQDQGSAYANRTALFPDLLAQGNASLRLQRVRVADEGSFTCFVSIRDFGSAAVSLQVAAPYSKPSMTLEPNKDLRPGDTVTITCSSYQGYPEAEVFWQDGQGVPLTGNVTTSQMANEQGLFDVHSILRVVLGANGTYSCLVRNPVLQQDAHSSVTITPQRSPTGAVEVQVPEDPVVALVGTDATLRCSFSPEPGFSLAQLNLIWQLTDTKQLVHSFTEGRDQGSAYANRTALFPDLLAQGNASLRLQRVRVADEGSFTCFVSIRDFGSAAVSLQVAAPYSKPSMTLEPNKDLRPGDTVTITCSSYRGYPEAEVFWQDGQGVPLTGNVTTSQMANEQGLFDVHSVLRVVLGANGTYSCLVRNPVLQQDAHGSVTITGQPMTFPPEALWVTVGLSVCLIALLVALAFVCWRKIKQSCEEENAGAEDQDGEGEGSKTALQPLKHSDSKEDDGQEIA
The experiment in a line: flow cytometry on A375 cells. A general note: Flow cytometry measures light scatter and fluorescence of single cells or particles in a stream.

In experiment [2] the target is T2, CD3 on the surface of primary human T cells (human, UniProt P07766 23-207).
T2 construct: whole, on cells; CD3 is a multi-chain complex; also called CD3ε
T2 sequence (P07766 23-207): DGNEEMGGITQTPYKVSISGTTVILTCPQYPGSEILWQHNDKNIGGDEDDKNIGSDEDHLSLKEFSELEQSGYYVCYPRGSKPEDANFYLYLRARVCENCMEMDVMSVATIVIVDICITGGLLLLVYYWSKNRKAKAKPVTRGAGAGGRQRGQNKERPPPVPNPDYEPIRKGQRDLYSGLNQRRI
The experiment in a line: flow cytometry on primary human T cells.

Experiment [3] has as its target T2, CD3 on the surface of primary human T …. As to the kind of experiment: flow cytometry on primary human T cells (FIGS. 14C and 14D).

B1: Dual-affinity Re-targeting Antibody (DART)-monomeric Fc format targeting B7H3 and CD3 (bispecific antibody)
chain 1: DIQLTQSPSFLSASVGDRVTITCKASQNVDTNVAWYQQKPGKAPKALIYSASYRYSGVPSRFSGSGSGTDFTLTISSLQPEDFATYYCQQYNNYPFTFGQGTKLEIKGGGSGGGGEVQLVESGGGLVQPGGSLRLSCAASGFTFSTYAMNWVRQAPGKGLEWVGRIRSKYNNYATYYADSVKDRFTISRDDSKNSLYLQMNSLKTEDTAVYYCVRHGNFGNSYVSWFAYWGQGTLVTVSSGGCGGGEVAALEKEVAALEKEVAALEKEVAALEKGGGDKTHTCPPCPAPEAAGGPSVFLFPPKPKDTLMISRTPEVTCVVVDVSHEDPEVKFNWYVDGVEVHNAKTKPREEQYNSTYRVVSVLTVLHQDWLNGKEYKCKVSNKALPAPIEKTISKAKGQPREPQVYTLPPSREEMTKNQVSLWCLVKGFYPSDIAVEWESNGQPENNYKTTPPVLDSDGSFFLYSKLTVDKSRWQQGNVFSCSVMHEALHNHYTQKSLSLSPGK
chain 2: QAVVTQEPSLTVSPGGTVTLTCRSSTGAVTTSNYANWVQQKPGQAPRGLIGGTNKRAPWTPARFSGSLLGGKAALTITGAQAEDEADYYCALWYSNLWVFGGGTKLTVLGGGGSGGGGEVQLVESGGGLVQPGGSLRLSCAASGFTFSSFGMHWVRQAPGKGLEWVAYISSDSSAIYYADTVKGRFTISRDNAKNSLYLQMNSLRDEDTAVYYCGRGRENIYYGSRLDYWGQGTTVTVSSGGCGGGKVAALKEKVAALKEKVAALKEKVAALKE
chain 3: not shown
notes: also called DART-Fc B7H3×CD3; DART-Fc
Take B1: the binding result in experiment [1] and in experiment [2] was “binds” each time.

B2: cx3309 (CD20-targeting constrained CD3 engaging construct, GA101 scFvs) (bispecific antibody)
chain 1: not shown
chain 2: DKTHTCPPCPAPELLGGPSVFLFPPKPKDTLMISRTPEVTCVVVDVSHEDPEVKFNWYVDGVEVHNAKTKPREEQYNSTYRVVSVLTVLHQDWLNGKEYKCKVSNKALPAPIEKTISKAKGQPREPQVYTLPPCRDELTKNQVSLWCLVKGFYPSDIAVEWESNGQPENNYKTTPPVLDSDGSFFLYSKLTVDKSRWQQGNVFSCSVMHEALHNHYTQKSLSLSPTGGSGGGGIEPDIGGSGGSEVQLVESGGGLVQPGGSLRLSCAASGFTFNTYAMNWVRQAPGKCLEWVARIRSKYNNYATYYADSVKGRFTISRDDAKNTLYLQMSSLRAEDTAVYYCVRHGNFGNSYVSWFAYWGQGTLVTVKP
scFv: QVQLVQSGAEVKKPGSSVKVSCKASGYAFSYSWINWVRQAPGQGLEWMGRIFPGDGDTDYNGKFKGRVTITADKSTSTAYMELSSLRSEDTAVYYCARNVFDGYWLVYWGQGTLVTVSGSGGGGSGGGGTGGGGSDIVMTQTPLSLPVTPGEPASISCRSSKSLLHSNGITYLYWYLQKPGQSPQLLIYQMSNLVSGVPDRFSGSGSGTDFTLKISRVEAEDVGVYYCAQNLELPYTFGGGTKVEIK
notes: also called cx3490
Regarding B2, the binding result in experiment [2] is listed as “no binding (tested: 100 nM)”.

B3: cx3314 (B7H3-targeting constrained CD3 engager, B7H3 scFv) (bispecific antibody)
chain 1: not shown
chain 2: DKTHTCPPCPAPELLGGPSVFLFPPKPKDTLMISRTPEVTCVVVDVSHEDPEVKFNWYVDGVEVHNAKTKPREEQYNSTYRVVSVLTVLHQDWLNGKEYKCKVSNKALPAPIEKTISKAKGQPREPQVYTLPPCRDELTKNQVSLWCLVKGFYPSDIAVEWESNGQPENNYKTTPPVLDSDGSFFLYSKLTVDKSRWQQGNVFSCSVMHEALHNHYTQKSLSLSPTGGSGGGGIEPDIGGSGGSEVQLVESGGGLVQPGGSLRLSCAASGFTFNTYAMNWVRQAPGKCLEWVARIRSKYNNYATYYADSVKGRFTISRDDAKNTLYLQMSSLRAEDTAVYYCVRHGNFGNSYVSWFAYWGQGTLVTVKP
scFv: EVQLVESGGGLVQPGGSLRLSCAASGFTFSSFGMHWVRQAPGKGLEWVAYISSDSSAIYYADTVKGRFTISRDNAKNSLYLQMNSLRDEDTAVYYCGRGRENIYYGSRLDYWGQGTTVTVSSSGGGGSGGGGSGGGGSDIQLTQSPSFLSASVGDRVTITCKASQNVDTNVAWYQQKPGKAPKALIYSASYRYSGVPSRFSGSGSGTDFTLTISSLQPEDFATYYCQQYNNYPFTFGQGTKLEIK
notes: also called cx3314 scFv
On to B3, for which the binding result in experiment [3] is “no binding”.

B4: cx3313 (B7H3-targeting constrained CD3 engager, B7H3 Fab) (bispecific antibody)
chain 1: not shown
chain 2: DKTHTCPPCPAPELLGGPSVFLFPPKPKDTLMISRTPEVTCVVVDVSHEDPEVKFNWYVDGVEVHNAKTKPREEQYNSTYRVVSVLTVLHQDWLNGKEYKCKVSNKALPAPIEKTISKAKGQPREPQVYTLPPCRDELTKNQVSLWCLVKGFYPSDIAVEWESNGQPENNYKTTPPVLDSDGSFFLYSKLTVDKSRWQQGNVFSCSVMHEALHNHYTQKSLSLSPTGGSGGGGIEPDIGGSGGSEVQLVESGGGLVQPGGSLRLSCAASGFTFNTYAMNWVRQAPGKCLEWVARIRSKYNNYATYYADSVKGRFTISRDDAKNTLYLQMSSLRAEDTAVYYCVRHGNFGNSYVSWFAYWGQGTLVTVKP
heavy: EVQLVESGGGLVQPGGSLRLSCAASGFTFSSFGMHWVRQAPGKGLEWVAYISSDSSAIYYADTVKGRFTISRDNAKNSLYLQMNSLRDEDTAVYYCGRGRENIYYGSRLDYWGQGTTVTVSSASTKGPSVFPLAPSSKSTSGGTAALGCLVKDYFPEPVTVSWNSGALTSGVHTFPAVLQSSGLYSLSSVVTVPSSSLGTQTYICNVNHKPSNTKVDKKVEPKSC
light: DIQLTQSPSFLSASVGDRVTITCKASQNVDTNVAWYQQKPGKAPKALIYSASYRYSGVPSRFSGSGSGTDFTLTISSLQPEDFATYYCQQYNNYPFTFGQGTKLEIKRTVAAPSVFIFPPSDEQLKSGTASVVCLLNNFYPREAKVQWKVDNALQSGNSQESVTEQDSKDSTYSLSSTLTLSKADYEKHKVYACEVTHQGLSSPVTKSFNRGEC
notes: also called cx3313 FAB
B4: in experiment [3], the binding result is recorded as “no binding”.

(Values after patent publication US20190010242A1 (INHIBRX, published 2019).)
